Test results taken from the supplement of paper PMC10567573.

B1: RHOBTB3 (parent)
chain: QLQSMPSRELASMNLDIVDLLKKA
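Further: lentivirally expressed fusions sorted by FACS into six bins by GFP to DsRed ratio, PSI derived from sequencing read proportions per bin multiplied by bin number.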

Variants of: B1
Experiment: protein stability index of a GFP-peptide fusion (GPS, HEK-293T) (PSI 1-6); higher = more stable
Settings: c terminus: a fixed tail appended
For P6C, the protein stability index was 2.5. Work on P6D yielded a protein stability index of 3.38. In the case of P6F, the protein stability index is reported as 1.93. P6G gave a protein stability index of 2.91. P6H gave a protein stability index of 2.05. P6I showed a protein stability index of 2.03. In the case of P6K, the protein stability index is reported as 3.77. P6L showed a protein stability index of 2.2. P6N showed a protein stability index of 3.55. P6Q gave a protein stability index of 3. P6R gave a protein stability index of 3.25. P6T gave a protein stability index of 3.46. In the case of P6V, the protein stability index is reported as 2.14. For P6W, the protein stability index was 1.85. Work on P6Y yielded a protein stability index of 1.88. S7A gave a protein stability index of 3.59. Work on S7C yielded a protein stability index of 2.69. In the case of S7D, the protein stability index is reported as 3.9. Work on S7E yielded a protein stability index of 3.48. S7G gave a protein stability index of 2.66. With S7H the protein stability index was 4.55. S7I showed a protein stability index of 2.42. S7K showed a protein stability index of 2.97. Work on S7L yielded a protein stability index of 2.56. Variant S7M has a protein stability index of 2.51. S7N gave a protein stability index of 2.98. S7P showed a protein stability index of 4.46. For S7Q, the protein stability index was 3.77. Variant S7R has a protein stability index of 4.13. Variant S7T has a protein stability index of 4.35. S7W showed a protein stability index of 5. In the case of S7Y, the protein stability index is reported as 3. Variant R8A has a protein stability index of 4.22. In the case of R8C, the protein stability index is reported as 3.85. With R8D the protein stability index was 4.11. R8E gave a protein stability index of 4.28. Variant R8F has a protein stability index of 2.65. In the case of R8G, the protein stability index is reported as 3.71. R8H gave a protein stability index of 3.94. With R8I the protein stability index was 2.33. For R8K, the protein stability index was 3.38. Work on R8L yielded a protein stability index of 2.35. With R8M the protein stability index was 3.2. R8P gave a protein stability index of 3.22. R8Q showed a protein stability index of 3.85. R8S gave a protein stability index of 3.99. In the case of R8V, the protein stability index is reported as 3.83. Variant R8W has a protein stability index of 2.58. With R8Y the protein stability index was 2.66. E9A showed a protein stability index of 3.1. With E9C the protein stability index was 2.7. For E9D, the protein stability index was 2.63. E9F showed a protein stability index of 2.92. With E9G the protein stability index was 2.9. In the case of E9H, the protein stability index is reported as 2.99. Variant E9I has a protein stability index of 2.44. Variant E9K has a protein stability index of 2.27. Variant E9L has a protein stability index of 2.7. In the case of E9M, the protein stability index is reported as 2.31. In the case of E9N, the protein stability index is reported as 3.4. Variant E9P has a protein stability index of 2.78. With E9Q the protein stability index was 2.7. With E9R the protein stability index was 2.15. Variant E9S has a protein stability index of 3.6. Work on E9T yielded a protein stability index of 3.61. Work on E9V yielded a protein stability index of 3.04. E9Y showed a protein stability index of 3.14. In the case of L10A, the protein stability index is reported as 4.18. L10C showed a protein stability index of 3.62. Work on L10D yielded a protein stability index of 4.09. Work on L10E yielded a protein stability index of 3.97. L10F showed a protein stability index of 3.41. Variant L10G has a protein stability index of 2.62. Work on L10H yielded a protein stability index of 3.24. With L10I the protein stability index was 2.95. In the case of L10K, the protein stability index is reported as 3.02. With L10M the protein stability index was 3.58. In the case of L10N, the protein stability index is reported as 3.33. Work on L10P yielded a protein stability index of 3.83. L10Q gave a protein stability index of 3.63. L10R showed a protein stability index of 3.71. L10S showed a protein stability index of 4.49. L10T gave a protein stability index of 4.32. Work on L10V yielded a protein stability index of 3.6. Variant L10W has a protein stability index of 3.25. For L10Y, the protein stability index was 3.88. A11C gave a protein stability index of 3.17. For A11D, the protein stability index was 3.75. In the case of A11E, the protein stability index is reported as 3.73. A11F showed a protein stability index of 2.76. Work on A11G yielded a protein stability index of 3.19. In the case of A11H, the protein stability index is reported as 3.21. With A11I the protein stability index was 2.87. A11K showed a protein stability index of 2.72. For A11L, the protein stability index was 3.11. For A11M, the protein stability index was 3.34. A11N gave a protein stability index of 3.29. For A11P, the protein stability index was 3.27. A11Q showed a protein stability index of 3.37. With A11R the protein stability index was 2.81. A11S showed a protein stability index of 3.54. A11T showed a protein stability index of 3.28. In the case of A11V, the protein stability index is reported as 3.27. With A11W the protein stability index was 2.79. A11Y showed a protein stability index of 2.86. With S12A the protein stability index was 3.28. For S12C, the protein stability index was 3.33. S12D showed a protein stability index of 3.68. Variant S12E has a protein stability index of 4.26. Work on S12F yielded a protein stability index of 3.22. For S12G, the protein stability index was 3.9. Work on S12H yielded a protein stability index of 3.06. In the case of S12I, the protein stability index is reported as 3.02. S12K showed a protein stability index of 3.63. For S12L, the protein stability index was 3.54. Work on S12M yielded a protein stability index of 3.24. Variant S12N has a protein stability index of 3.06. S12P gave a protein stability index of 4.11. Variant S12Q has a protein stability index of 4.1. With S12R the protein stability index was 2.13. S12T gave a protein stability index of 3.75. Work on S12V yielded a protein stability index of 3.95. For S12W, the protein stability index was 2.5. For S12Y, the protein stability index was 2.95. M13A showed a protein stability index of 4. Work on M13C yielded a protein stability index of 3.74. M13D gave a protein stability index of 3.96. Work on M13E yielded a protein stability index of 4.19. With M13F the protein stability index was 2.97. M13G gave a protein stability index of 3.76. With M13H the protein stability index was 3.59. With M13I the protein stability index was 2.39. In the case of M13K, the protein stability index is reported as 3.8. M13L showed a protein stability index of 3.52. M13N gave a protein stability index of 4.17. In the case of M13P, the protein stability index is reported as 4.01. M13Q showed a protein stability index of 3.79. M13R showed a protein stability index of 3.61. For M13S, the protein stability index was 3.35. In the case of M13T, the protein stability index is reported as 3.38. Variant M13V has a protein stability index of 3.7. Variant M13W has a protein stability index of 2.88. With M13Y the protein stability index was 3.17. Work on N14A yielded a protein stability index of 2.87. In the case of N14C, the protein stability index is reported as 2.16. For N14D, the protein stability index was 3.92. For N14E, the protein stability index was 3.62. N14F showed a protein stability index of 1.79. N14G showed a protein stability index of 3.68. N14H gave a protein stability index of 3.01. For N14I, the protein stability index was 2.61. Variant N14K has a protein stability index of 3.75. Work on N14L yielded a protein stability index of 2.6. N14M showed a protein stability index of 2.63. N14P gave a protein stability index of 3.78. Work on N14Q yielded a protein stability index of 3.3. Work on N14R yielded a protein stability index of 2.58. Work on N14S yielded a protein stability index of 3.31. N14T gave a protein stability index of 3.27. With N14V the protein stability index was 1.9. N14W showed a protein stability index of 2.37. N14Y gave a protein stability index of 2.68. For L15A, the protein stability index was 3.67. L15C showed a protein stability index of 4.27. With L15D the protein stability index was 3.23. L15E showed a protein stability index of 3.94. Work on L15F yielded a protein stability index of 3.44.
